Test results taken from article PMC9458460, “Structural basis of 3′-end poly(A) RNA recognition by LARP1”.

Columns and labels:
LARP1 LaM [1] = target: T1, LARP1 LaM (UniProt Q6PKG0-3 323-410); assay: ITC; 10 mM MES pH 6.3, 100 mM NaCl, 1 mM TCEP (HPLC and NMR buffer; ITC buffer not stated separately); ITC 293 K, NMR 25 C
[2] = target: LARP1 323-509 Q333A/F348A (UniProt Q6PKG0-3 323-509, Q333A;F348A); assay: as above; conditions: protein: recombinant
[3] = target: LARP1 323-509 Y336A/F348A (UniProt Q6PKG0-3 323-509, Y336A;F348A); assay: as above; conditions: protein: recombinant
LARP1 LaM-RRM region = LARP1 LaM-RRM region (UniProt Q6PKG0-3 323-509); assay: as above; conditions: protein: recombinant
LARP1 LaM Y336A/F348A = LARP1 LaM Y336A/F348A (UniProt Q6PKG0-3 323-410, Y336A;F348A); assay: as above
LARP1 LaM Q333A/F348A = LARP1 LaM Q333A/F348A (UniProt Q6PKG0-3 323-410, Q333A;F348A); assay: as above
LARP1 LaM R345A = LARP1 LaM R345A (UniProt Q6PKG0-3 323-410, R345A); assay: as above
LARP1 LaM Q333A = LARP1 LaM Q333A (UniProt Q6PKG0-3 323-410, Q333A); assay: as above
LARP1 LaM [4] = target: T1, LARP1 LaM; assay: as above; remark: listed apart in the source
LARP1 LaM [5] = target: T1, LARP1 LaM; assay: crystal structure; 1.15 A; 10 mM MES pH 6.3, 100 mM NaCl, 1 mM TCEP (HPLC and NMR buffer; ITC buffer not stated separately); ITC 293 K, NMR 25 C

Row | Binder | binding result (LARP1 LaM [1]) | binding signal (LARP1 LaM [4]) [fold weaker than A6] | other results
1 | AAAAAA (ssRNA) [A6] | binds |  | 
2 | AAAAAAAAAAAAAAAAAAAAAAAAA (ssRNA) [A25] |  |  | binding result [2]: no binding; binding result [3]: no binding; Kd (LARP1 LaM-RRM region): ~200 nM; Kd (LARP1 LaM [1]): < 1000 nM
3 | AAAA (ssRNA) [A4] | binds |  | binding result (LARP1 LaM Y336A/F348A): no binding; binding result (LARP1 LaM Q333A/F348A): no binding; binding signal (LARP1 LaM R345A): ~2 fold weaker than wild type; binding signal (LARP1 LaM Q333A): ~20 fold weaker than wild type
4 | AACAAA (ssRNA) [A2CA3] | binds |  | 
5 | AAAAAA (ssRNA, 3' phosphate) [A5A(p)] |  | ~200 | 
6 | AAAAAAAAAAA (ssRNA) [A11] | binds |  | 
7 | ACAAAA (ssRNA) [ACA4] | binds |  | 
8 | UUUUUU (ssRNA) [U6] |  | ~10 | 
9 | AAACAA (ssRNA) [A3CA2] | binds |  | 
10 | AAAUAA (ssRNA) [A3UA2] | binds |  | 
11 | AAA (ssRNA) [A3] |  |  | binding result (LARP1 LaM [5]): binds
12 | AAAAAC (ssRNA) [A5C] |  | ~10 | 
13 | GGGGGG (ssRNA) [G6] |  | ~10 | 
14 | AAAACA (ssRNA) [A4CA] |  | ~10 | 
15 | CCCCCC (ssRNA) [C6] |  | > 200 | 
